Results as given in patent US6057104.

Tests used:
[1] = biological target: MmRad51, full length, fused to the GAL4 DNA-binding domain (the "bait") (mouse); experiment: yeast two-hybrid in HF7c cells, full length MmRad51 bait; relative to the positive control
[2] = biological target: MmRad51, full length, fused to the GAL4 DNA-binding domain (the "bait") (mouse); experiment: yeast two-hybrid in HF7c cells, full length MmRad51 bait; relative to full length MmRad51 prey as 100%
[3] = biological target: MmRad51, full length, fused to the GAL4 DNA-binding domain (the "bait") (mouse); experiment: yeast two-hybrid in HF7c cells, full length MmRad51 bait, X-gal staining
[4] = biological target: MmRad51, full length, fused to the GAL4 DNA-binding domain (the "bait") (mouse); experiment: yeast two-hybrid against full length MmRad51
[5] = biological target: MmRad51, full length, fused to the GAL4 DNA-binding domain (the "bait") (mouse); experiment: yeast two-hybrid in HF7c cells, full length MmRad51 bait; the reference of the scale
[6] = biological target: mammalian Rad51 (MmRad51), wild-type protein of the cells (mouse)

## MmRad51 deletion TR1-175, as two-hybrid prey
[1]
  relative β-galactosidase activity: 9%

## MmRad51 deletion TR1-43, as two-hybrid prey
[2]
  relative β-galactosidase activity: 43%
[3]
  time until yeast cells stained blue: < 5 min

## MmRad51 deletion TR131-339, as two-hybrid prey
[2]
  relative β-galactosidase activity: 1

## rad51K-A134 product, as tested in the yeast two-hybrid system
[4]
  relative β-galactosidase activity: 90%

## MmRad51 deletion TR1-131, as two-hybrid prey
[1]
  relative β-galactosidase activity: 11%

## MmRad51, full length, as two-hybrid prey
[5]
  relative β-galactosidase activity: 100%

## MmRad51 deletion TR43-339, as two-hybrid prey
[2]
  relative β-galactosidase activity: 1

## altered Rad51 product encoded by rad51K-A134, expressed in ES cells
[6]
  relative targeting frequency (TG^r +G418^r /G418^r colonies) at HPRT in ES cells, IVH-tk as 100%: 54%

## MmRad51 deletion TR1-93, as two-hybrid prey
[2]
  relative β-galactosidase activity: 4%
[3]
  time until yeast cells stained blue: 30 min
